In IntAct's records for PubMed 15546359:

B1: Auxin-responsive protein IAA1 (Arabidopsis thaliana (Mouse-ear cress)), P49677 (parent)
chain: MEVTNGLNLKDTELRLGLPGAQEEQQLELSCVRSNNKRKNNDSTEESAPPPAKTQIVGWPPVRSNRKNNNNKNVSYVKVSMDGAPYLRKIDLKMYKNYPELLKALENMFKFTVGEYSEREGYKGSGFVPTYEDKDGDWMLVGDVPWDMFSSSCQKLRIMKGSEAPTAL
partner: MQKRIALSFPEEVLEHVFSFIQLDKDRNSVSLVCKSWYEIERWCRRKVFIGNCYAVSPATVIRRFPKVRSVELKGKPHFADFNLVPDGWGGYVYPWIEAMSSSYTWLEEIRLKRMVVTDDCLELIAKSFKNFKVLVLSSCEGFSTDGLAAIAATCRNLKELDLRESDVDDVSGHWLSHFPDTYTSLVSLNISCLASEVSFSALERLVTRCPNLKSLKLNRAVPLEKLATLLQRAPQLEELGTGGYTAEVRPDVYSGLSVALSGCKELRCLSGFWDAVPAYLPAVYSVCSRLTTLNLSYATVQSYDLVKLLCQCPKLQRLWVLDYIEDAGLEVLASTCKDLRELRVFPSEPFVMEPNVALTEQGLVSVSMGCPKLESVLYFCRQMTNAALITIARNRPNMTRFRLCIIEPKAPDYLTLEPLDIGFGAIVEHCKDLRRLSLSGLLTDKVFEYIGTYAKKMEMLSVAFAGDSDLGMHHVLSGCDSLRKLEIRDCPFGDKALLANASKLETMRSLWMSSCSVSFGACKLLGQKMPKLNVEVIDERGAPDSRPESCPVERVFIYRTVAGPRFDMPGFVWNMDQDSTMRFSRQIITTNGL

Variants of: B1
Settings: with tir1_arath TIR1, Q570C0

Variant	effect of a mutation on the interaction
MEVTNGLNLKDTELRLGLPGAQEEQQLELSCVRSNNKRKNNDSTEESAPPPAKTQIVGWPSVRSNRKNNNNKNVSYVKVSMDGAPYLRKIDLKMYKNYPELLKALENMFKFTVGEYSEREGYKGSGFVPTYEDKDGDWMLVGDVPWDMFSSSCQKLRIMKGSEAPTAL [P61S]	decreasing interaction
